B1: C-Ag20z0: C-Ag20 isoform having the z0 splice variant, SEQ. ID NO. 1 (protein)
chain: MDPRTYIEYLNAVTESEKALQSNHFELTLRTEATQGWLVLWIGKAAERADYMALAIVDGHLQLSYDLASQPVVLRSTVKVNTNRWLRVRAHREHREGSLQVGNEAPVTSSSPLGATQLDTDGALWLGGLQKLPVGQPLPKAYGTGFVGCLRNVVGHRQLHLLEDAVTKPELRPCPTLNSKLGPEQKLISEEDLNSAVDHHHHHH
modifications: Synthetically produced sequence
B2: C-Ag15: 15-kD COOH-terminal fragment of agrin created by deleting 37 amino acids from the NH2 terminus of C-Ag20, SEQ. ID NO. 3 (protein)
chain: MDPWIGKAAERADYMALAIVDGHLQLSYDLASQPVVLRSTVKVNTNRWLRVRAHREHREGSLQVGNEAPVTSSSPLGATQLDTDGALWLGGLQKLPVGQPLPKAYGTGFVGCLRNVVGHRQLHLLEDAVTKPELRPCPTLNSKLGPEQKLISEEDLNSAVDHHHHHH
modifications: Synthetically produced sequence

System: cultured cortical neurons
Experiment: Firing properties of cultured cortical neurons in normal external solution
Format: cell-based, mouse
Conditions: absence of TTX and neurotransmitter receptor antagonists

| Molecule | frequency of spontaneous action potentials |
| --- | --- |
| B1 | significant and reversible increase |
| B2 | inhibited spontaneous activity |

Source: patent publication US20100095387A1, “METHODS AND REAGENTS FOR SCREENING NEW DRUGS AND FOR TREATING ION PUMP ASSOCIATED DISORDERS AND DISEASES” (priority 2005, published 2010)
